Experimental data reported in paper PMC4877600.

Tested on: human immunoglobulin E (IgE) (Homo sapiens)
Experiment: fluorescence bead-binding assay (thermal elution)
Conditions: IgE on beads; selection buffer as printed: 44.5 mM Tris base, 44.5 mM bisboronic acid (sic), 50 mM NaCl, pH 8.5; 0-100 nM DNA, room temperature, 2 h; IgE beads 3x10^4 per …

| Sequence | Kd |
| --- | --- |
| GCCTGTTGTGAGCCTCCTGTCGAAACTAGACCGGGAGCAAAACGGCAGATTGGGGCAAGGCCGGTTGAGCGTTTATTCTTGTCTCCC [SIGE7] | 0.018 µM |
| GCCTGTTGTGAGCCTCCTGTCGAAGATGTAGGCCATCCTGTGGGGGTACGGGGCGGGCTGTGGTTTGAGCGTTTATTCTTGTCTCCC [SIGE5] | 0.01 µM |
